Results as given in US10000743B2, “2-deoxy-scyllo-inosose reductase” (Asahi Kasei Chemicals Corporation, priority 2013, dated 2018).
Marks after values point to notes of the source that are not given here.

Assays:
[1] = molecular target: T1, DOI reductase from Burkholderia terrae strain AKC-020 (Paraburkholderia terrae, UniProt A0ABM7TVX3); test: Substrate specificity of purified DOI reductase (oxidation reaction, NAD+ to NADH at 340 nm); assay type: biochemical; details: substrate 5 mM
Method: A quantity of 10 μL of enzyme solution was added to 980 μL of 0.1 M buffer containing 1.0 μmol of NAD^+ and prewarmed for five minutes at 25° C. A quantity of 10 μL of each 0.1 M substrate was added and mixed immediately. The rate of increase in the absorbance (wavelength 340 nm) over two minutes was measured by spectrophotometer, and the activity by each substrate was compared. […] In the table, N.D. means that no reaction could be detected.

[2] = molecular target: T1, DOI reductase from Burkholderia terrae strain AKC-020; test: Km value and Vmax of purified DOI reductase; assay type: biochemical
Method: (§1) The protein concentration of the enzyme solution was also measured by the Bradford method.

[3] = DOI reducing activity of recombinantly expressed inositol dehydrogenases/DOIR; assay type: biochemical; details: for DOI reducing activity: expressed in E. coli BL21 (DE3); for catalytic activity to convert 2-deoxy-scyllo-inosose into (−)-vibo-quercitol / reduction of DOI (in words): recombinant expression in Escherichia coli
Method: Specifically, the reaction solution composition other than DOI (990 μL) was taken by cuvette and prewarmed for approximately 5 minutes at 25° C. After adding DOI solution (10 μL) and mixing quickly, the rate of decrease in the absorbance (wavelength […]) over two minutes was measured using a spectrophotometer (Shimadzu, UV-2550) regulated to 25° C. with water as the control, and the decrease in absorbance per minute was calculated. Next, each strain was evaluated by calculating the U per mL of crude enzymatic solution, defining the amount that decreases [sic; converts]
Furthermore, inositol dehydrogenase (Sf-Idh) from Sinorhizobium fredii USDA191 is an enzyme that oxidizes myo-inositol, and iolX (Bs-IolX) from Bacillus subtilis 168 is reported to encode an enzyme showing activity on scyllo-inositol. In addition, iolW (Bs-IolW) is said to be an NADPH-dependent inositol dehydrogenase. These six genes were introduced into an expression vector Pet21B(+) (Merck), and expressed by E. coli BL21 (DE3).

[4] = Conversion of DOI to quercitol by enzymes from recombinant E. coli (HPLC, diastereomer excess); details: for Conversion rate: DOI to quercitol; for (−)-Vibo-quercitol produced: conversion of DOI; for Diastereomer excess of scyllo-quercitol: DOI converted to scyllo-quercitol
Method: Specifically, DOI conversion was carried out using a coenzyme regeneration system by formate dehydrogenase (FDH hereinafter, Roche Diagnostics Inc., product no. 244678). […] The reaction solution was incubated for three hours while shaking at 30° C.

[5] = substrate: O[C@@H]1[C@@H](O)[C@H](O)C[C@@H](O)[C@H]1O; test: purified protein, by the assay type; details: other: oxidation reaction
[6] = substrate: NC(=O)c1ccc[n+]([C@@H]2O[C@H](COP(=O)(O)OP(=O)(O)OC[C@H]3O[C@@H](n4cnc5c(N)ncnc54)[C@H](O)[C@@H]3O)[C@@H](O)[C@H]2O)c1; test: Km value and Vmax of purified DOI reductase; assay type: biochemical, Burkholderia terrae; details: other: 0.1M Gly-NaOH, pH 9.0
Method: as §1

[7] = substrate: O=C1C[C@@H](O)[C@H](O)[C@@H](O)[C@@H]1O; test: Km value and Vmax of purified DOI reductase; assay type: biochemical, Burkholderia terrae; details: other: reduction reaction
Method: as §1

[8] = Optimum pH of purified DOI reductase (DOI reduction, NADH decrease at 340 nm); assay type: biochemical; details: buffers of each pH, 25° C.
Method: A quantity of 10 μL of 0.1 M DOI was added and mixed immediately. The rate of decrease in the absorbance (wavelength 340 nm) over two minutes was measured by spectrophotometer, and the activity was compared at each pH.

[9] = activity relative to the culture broth

For `O[C@H]1[C@H](O)[C@@H](O)[C@H](O)[C@@H](O)[C@H]1O` [Myo-inositol], the “Substrate specificity (oxidation reaction)” value (“Substrate specificity” below) ([1]; pH 8.0, 25° C.) was 3.21 U/mg and the “Substrate specificity” value ([1]; pH 9.0, 25° C.) was 5.71 U/mg.

In the case of `O[C@@H]1[C@@H](O)[C@H](O)C[C@@H](O)[C@H]1O` [(−)-vibo-quercitol, (1R,2R,4S,5R)-cyclohexane-1,2,3,4,5-pentol], the “Substrate specificity” value ([1]; pH 8.0, 25° C.) is reported as 8.21 U/mg, the “Substrate specificity” value ([1]; pH 9.0, 25° C.) is reported as 13.93 U/mg and the “Vmax to (−)-vibo-quercitol” value ([2]; oxidation reaction) is reported as 16.45 U/mg.

With `O=C1C[C@@H](O)[C@H](O)[C@@H](O)[C@@H]1O` [DOI, 2-deoxy-scyllo-inosose] the “Vmax to DOI” value ([2]; reduction reaction) was 116.28 U/mg.

B1: BS-IolW: NADPH-dependent inositol dehydrogenase from Bacillus subtilis 168, homology with DOIR 27% (protein, UniProt O32223 1-358, looked up)
scyllo-inositol …: MITLLKGRRKVDTIKVGILGYGLSGSVFHGPLLDVLDEYQISKIMTSRTEEVKRDFPDAEVVHELEEITNDPAIELVIVTTPSGLHYEHTMACIQAGKHVVMEKPMTATAEEGETLKRAADEKGVLLSVYHNRRWDNDFLTIKKLISEGSLEDINTYQVSYNRYRPEVQARWREKEGTATGTLYDLGSHIIDQTLHLFGMPKAVTANVMAQRENAETVDYFHLTLDYGKLQAILYGGSIVPANGPRYQIHGKDSSFIKYGIDGQEDALRAGRKPEDDSWGADVPEFYGKLTTIRGSDKKTETIPSVNGSYLTYYRKIAESIREGAALPVTAEEGINVIRIIEAAMESSKEKRTIMLEH
For B1, the DOI reducing activity ([3]; using NADPH as coenzyme) was 0.69) (using NADPH as coenzyme) U/Ml culture, the “catalytic activity to convert 2-deoxy-scyllo-inosose into (−)-vibo-quercitol / reduction of DOI (in words)” value [3] was “low ability” and the “Remaining DOI” value [4] was 9.9 mM.

B2: Bh-IolG: inositol dehydrogenase from Burkholderia sp. SJ98, homology with DOIR 79% (protein)
chain: MTRIAVLGAGRIGKIHAANVASNSDAKLVVVADPFEGAANSLAEKLGCEASTDCLSVIERDDVDAVVIGTPTDTHIQFMLHAVSKGKAVLCEKPIDLDMKKSLAAAKEVERHDGRVMLAFNRRFDPTSQAFRKAIDDGEVGDVRQVVITSRDPGMPPREYVTHSGGIFRDMVIHDLDLARWFLGEEPIEVMATGSRLVEPSLAEVPDFDTVMLQLRTESGKQCHINCCREAVYGYDQRLEVFGSRGMLLQENLRPSTIRRWSASATDAREPLLNFFLERYEAAYKTELTAFVEALRTNTTFPTSVADGLKALRLADCALESAMSCRSVKV
modifications: Burkholderia sp. SJ98
For B2, the DOI reducing activity [3, 9] was 11.7 U/Ml culture, the Conversion rate ([4]; from recombinant E. coli) was at least 99% and the “(−)-Vibo-quercitol produced” value ([4]; from recombinant E. coli) was 9.9 mM.

B3: Ps-Idh: inositol dehydrogenase from Pseudomonas synxantha BG33R, homology with DOIR 68% (protein)
chain: MLRIAVLGAGRIAKIHAANVAAHPNATLVLVADPWREGVDALSTQLGCEAAYDCAAVLNRKDIDAVVIGTPTDTHIDLLLAAVAQGKAVLCEKPIDLDIAKARSAAQTVERQGGKVMLGFNRRFDPDMLRLRQALDAGQIGAVRQVIITSRDPGLAPREYLEHSGGILRDMTIHDFDTARHLLGEEPVQVSAFASRLVDPSLEQIDDYDSVMVLLRTASGKQCHINCCRQAVYGYDQRVEVSGASGVLLTDNHRPSTLRHWSAEHTEALEPLQHFFLERYADAYRNELMQFVDALNEGRELPTGMRDGLYALHLADCALESVKTGRSVAVCYDR
modifications: Pseudomonas synxantha BG33R
For B3, the DOI reducing activity [3, 9] was 9.8 U/Ml culture, the Conversion rate ([4]; from recombinant E. coli) was at least 99% and the “(−)-Vibo-quercitol produced” value ([4]; from recombinant E. coli) was 9.9 mM.

B4: BS-IolX: iolX enzyme from Bacillus subtilis 168, reported activity on scyllo-inositol, homology with DOIR 36% (protein, UniProt P40332 1-342, looked up)
scyllo-inositol …: MEHQVRCAVLGLGRLGYYHAKNLVTSVPGAKLVCVGDPLKGRAEQVARELGIEKWSEDPYEVLEDPGIDAVIIVTPTSTHGDMIIKAAENGKQIFVEKPLTLSLEESKAASEKVKETGVICQVGFMRRFDPAYADAKRRIDAGEIGKPIYYKGFTRDQGAPPAEFIKHSGGIFIDCSIHDYDIARYLLGAEITSVSGHGRILNNPFMEQYGDVDQALTYIEFDSGAAGDVEASRTSPYGHDIRAEVIGTEGSIFIGTLRHQHVTILSAKGSSFDIIPDFQTRFHEAYCLELQHFAECVRNGKTPIVTDIDATINLEVGIAATNSFRNGMPVQLDVKRAYTGM
With B4 the DOI reducing activity [3, 9] was 0.13 U/Ml culture, the “catalytic activity to convert 2-deoxy-scyllo-inosose into (−)-vibo-quercitol / reduction of DOI (in words)” value [3] was “low ability” and the “Remaining DOI” value [4] was 0.4 mM. The “Diastereomer excess of scyllo-quercitol” value ([4]; from recombinant E. coli) was at least 99%, the “Diastereomer excess of scyllo-quercitol” value ([4]; from recombinant E. coli, listed as Bs-IolX) was 99% and the Conversion rate ([4]; from recombinant E. coli) was 96%. For the same molecule, the “scyllo-quercitol produced (printed in the (−)-vibo-quercitol column, footnote *)” value ([4]; from recombinant E. coli, converted into scyllo-quercitol) was 9.6* mM.

B5: DOI reductase from Burkholderia terrae strain AKC-020 (Paraburkholderia terrae) (protein)
chain: MIRIAVLGAGRIGRIHAGNVAASPNAQLVVVADPVESAAKSLATRLGCEASTDPAGVLERKDIDAVVIGTPTDTHITFMLEAVRRGKAVLCEKPIDLDMEKSLAAANEVERQRGRVMLAFNRRFDPTSQAFRNAIDAGDVGEVRQVIISSRDPGMPPRDYVEHSGGIFRDMVIHDLDMARWLLGEEPVEVMAMASRLIDESLEKLTDFDTVMVQLRTASGKQCHINCCREAVYGYDQRMEVSGSKGMLLQENLRPSTIRRWSKEATDVREPLLNFFLERYEAAYKAELEAFVDALNTNSPLPTSVQDGLKALRLADAALESALSGKAVKV
In the case of B5, the Km [5] is reported as 1.60 mM, 16.45 U/mg mM, the Km [6] is reported as 0.11 mM (0.1M Gly-NaOH, pH 9.0) mM and the Km [7] is reported as 0.41 mM, 116.28 U/mg mM.

B6: DOIR: 2-deoxy-scyllo-inosose reductase from Burkholderia terrae strain AKC-020, amino acid sequence SEQ ID NO: 2 (protein)
chain: B5 chain
modifications: Burkholderia terrae AKC-020
For B6, the DOI reducing activity [3, 9] was 11.2 U/Ml culture, the Conversion rate ([4]; from recombinant E. coli) was at least 99% and the “(−)-Vibo-quercitol produced” value ([4]; from recombinant E. coli) was 9.9 mM. For the same molecule, the “pH of maximum activity” value [8] was 7.0-9.0.

B7: Pa-Idh: inositol dehydrogenase from Pantoea sp. At-9b, homology with DOIR 58% (protein)
chain: MKIAVLGAGRIGNVHAMNVASNPNVELVAIADPFIDNAIKLTEKYGGKAVKEPMELIESNAVDAVIIATPTDTHVDLMLSAARNGKAVLCEKPVDLNLERAEVACAELKQCDVPVMIAFNRRFDPSAAEMHSAIAKGEVGELHQIMISSRDPGFASMDYLRHSGGIFRDMTIHDFDMARWLLGEEPVQVFASASRMLEPALEPLNDFDTVMVQMITKSGKQCHINCSRQAVYGHDQRIEAYGSAGMLLNDNLRPSTLRRFNKSATDARVPLVHFFLERYADAYRMELEAFISAVKHAKPVPVTPYDGYMALKLADCAQQSAETGLPVQL
modifications: Pantoea sp. At-9b
With B7 the DOI reducing activity [3, 9] was 8.4 U/Ml culture, the Conversion rate ([4]; from recombinant E. coli) was at least 99% and the “(−)-Vibo-quercitol produced” value ([4]; from recombinant E. coli) was 9.9 mM.
